In assay [1] the target is Recombinant FcγRI with C-terminus Biotin (human) (UniProt P12314). As to the kind of experiment: BLI; Octet Red; biotinylated FcγR-AviTag loaded on Streptavidin biosensors (~0.5–1.0 nm); antibody in solution, 75 nM-1.17 nM for FcγRI, 5000 to 78.125 nM for the other receptors; PBST (PBS, 0.02% Tween20) pH 7.2; 60 s association, 60 s dissociation; steady state, one-site fit.

The target of assay [2] is Recombinant FcγRIIa (R131) with C-terminus Biotin (human). The assay is described as above.
The target in assay [3] is Recombinant FcγRIIIa (F158) with C-terminus Biotin (human) (UniProt P08637). The description is as above.
Chain of Recombinant FcγRIIIa (F158) with C-terminus Biotin (human) (P08637 17-208): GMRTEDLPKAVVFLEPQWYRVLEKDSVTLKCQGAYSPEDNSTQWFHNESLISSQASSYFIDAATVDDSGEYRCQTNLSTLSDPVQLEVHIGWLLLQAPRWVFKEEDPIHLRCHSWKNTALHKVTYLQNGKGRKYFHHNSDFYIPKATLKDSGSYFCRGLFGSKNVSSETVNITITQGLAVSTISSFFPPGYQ
Assay [4] addresses Recombinant FcγRIIa (H131) with C-terminus Biotin (human) (UniProt P12318). The description is as above.
Assay [5] addresses Recombinant FcγRIIIa (V158) with C-terminus Biotin (human). Described as above.
The target of assay [6] is Recombinant FcγRIIa (H131) with C-terminus Biotin (human) (UniProt P12318).
Chain of Recombinant FcγRIIa (H131) with C-terminus Biotin (human) (P12318 34-217): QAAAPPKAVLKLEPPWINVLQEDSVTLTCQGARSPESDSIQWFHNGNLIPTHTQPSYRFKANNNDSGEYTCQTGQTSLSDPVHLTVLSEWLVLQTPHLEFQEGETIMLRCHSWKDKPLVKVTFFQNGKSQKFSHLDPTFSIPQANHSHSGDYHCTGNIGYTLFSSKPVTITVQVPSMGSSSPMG
In assay [7] the target is Recombinant FcγRIIIa (V158) with C-terminus Biotin (human).
Target sequence in this assay (P08637 17-208 F176V): as the sequence (P08637 17-208) above, with F160V counted along it
The target of assay [8] is Recombinant FcγRIIb with C-terminus Biotin (human) (UniProt P31994). As to the kind of experiment: other; qualitative only.
Chain of Recombinant FcγRIIb with C-terminus Biotin (human) (P31994 43-217): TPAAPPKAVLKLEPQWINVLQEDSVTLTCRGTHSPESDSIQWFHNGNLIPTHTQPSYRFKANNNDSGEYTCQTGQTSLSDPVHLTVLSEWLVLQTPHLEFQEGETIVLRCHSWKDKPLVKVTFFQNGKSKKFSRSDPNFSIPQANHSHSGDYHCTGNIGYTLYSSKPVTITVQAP
Assay [9] has as its target Recombinant FcγRIIIa (F158) with C-terminus Biotin (human) (UniProt P08637).
Assay [10] has as its target Recombinant FcγRIIa (R131) with C-terminus Biotin (human) (UniProt P12318).
Assay [11] has the same target. The source holds these as a separate data set.
For assay [12], the target named is Recombinant FcγRIIa (H131) with C-terminus Biotin (human) (UniProt P12318). This is another data set of the same source.
Assay [13] deals with Recombinant FcγRIIIa (V158) with C-terminus Biotin (human). This is another data set of the same source.
Target sequence in this assay (P08637 17-208 F176V): as the sequence (P08637 17-208) above, with F160V counted along it
Assay [14] has as its target Recombinant FcγRIIIa (F158) with C-terminus Biotin (human) (UniProt P08637). The source holds these as a separate data set.
For assay [15], the target named is Recombinant FcγRIIb with C-terminus Biotin (human) (UniProt P31994).
The target of assay [16] is Recombinant FcγRIIa (R131) with C-terminus Biotin (human) (UniProt P12318). The source holds these as a separate data set.
Chain of Recombinant FcγRIIa (R131) with C-terminus Biotin (human) (UniProt P12318) (P12318 34-217 H167R): as the sequence (P12318 34-217) above, with H134R counted along it
The target in assay [17] is Recombinant FcγRIIa (H131) with C-terminus Biotin (human) (UniProt P12318). This is another data set of the same source.
Assay [18] addresses Recombinant FcγRIIIa (F158) with C-terminus Biotin (human) (UniProt P08637). This is another data set of the same source.
Assay [19] has as its target Recombinant FcγRI with C-terminus Biotin (human) (UniProt P12314).
Assay [20] deals with Recombinant FcγRIIIa (V158) with C-terminus Biotin (human). The source holds these as a separate data set.
Target sequence in this assay (P08637 17-208 F176V): as the sequence (P08637 17-208) above, with F160V counted along it
The target of assay [21] is Recombinant FcγRIIa (R131) with C-terminus Biotin (human) (UniProt P12318). The source holds these as a separate data set.
Assay [22] addresses Recombinant FcγRIIIa (F158) with C-terminus Biotin (human) (UniProt P08637). This is another data set of the same source.
The target of assay [23] is Recombinant FcγRIIa (H131) with C-terminus Biotin (human) (UniProt P12318). The source holds these as a separate data set.
For assay [24], the target named is Recombinant FcγRIIa (R131) with C-terminus Biotin (human) (UniProt P12318). The source holds these as a separate data set.
In assay [25] the target is Recombinant FcγRI with C-terminus Biotin (human) (UniProt P12314). This is another data set of the same source.
Assay [26] concerns the target Recombinant FcγRIIIa (F158) with C-terminus Biotin (human) (UniProt P08637). This is another data set of the same source.
The target of assay [27] is Recombinant FcγRIIa (H131) with C-terminus Biotin (human) (UniProt P12318). This is another data set of the same source.
In assay [28] the target is Recombinant FcγRIIIa (V158) with C-terminus Biotin (human). This is another data set of the same source.
Target sequence in this assay (P08637 17-208 F176V): as the sequence (P08637 17-208) above, with F160V counted along it
Assay [29] has as its target Recombinant FcγRIIb with C-terminus Biotin (human) (UniProt P31994). This is another data set of the same source.
Assay [30] addresses Recombinant FcγRI with C-terminus Biotin (human) (UniProt P12314). Particulars: domain or fragment.
In assay [31] the target is Recombinant FcγRIIa (R131) with C-terminus Biotin (human) (UniProt P12318). Particulars: domain or fragment.
In assay [32] the target is Recombinant FcγRIIIa (V158) with C-terminus Biotin (human). Particulars: domain or fragment.
Target sequence in this assay (P08637 17-208 F176V): as the sequence (P08637 17-208) above, with F160V counted along it
The target in assay [33] is Recombinant FcγRIIIa (F158) with C-terminus Biotin (human) (UniProt P08637). Particulars: domain or fragment.
The target in assay [34] is Recombinant FcγRIIIa (V158) with C-terminus Biotin (human). The source holds these as a separate data set.
Target sequence in this assay (P08637 17-208 F176V): as the sequence (P08637 17-208) above, with F160V counted along it
The target of assay [35] is Recombinant FcγRIIIa (F158) with C-terminus Biotin (human) (UniProt P08637). This is another data set of the same source.
Assay [36] concerns the target Recombinant FcγRIIa (R131) with C-terminus Biotin (human) (UniProt P12318). The source holds these as a separate data set.
The target in assay [37] is Recombinant FcγRIIa (H131) with C-terminus Biotin (human) (UniProt P12318). This is another data set of the same source.
The target in assay [38] is Recombinant FcγRIIa (R131) with C-terminus Biotin (human) (UniProt P12318). The source holds these as a separate data set.
Assay [39] has as its target Recombinant FcγRIIa (H131) with C-terminus Biotin (human) (UniProt P12318). The source holds these as a separate data set.
The target of assay [40] is Recombinant FcγRIIIa (F158) with C-terminus Biotin (human) (UniProt P08637). This is another data set of the same source.
Assay [41] deals with Recombinant FcγRIIIa (V158) with C-terminus Biotin (human). This is another data set of the same source.

Where two headings read alike, the source gives them in different places.

For orientation: Kd means the equilibrium constant for the complex coming apart. What is called IC50 is the concentration that gives 50% inhibition.

Chain of Human IgG3 (P01860 whole entry, looked up): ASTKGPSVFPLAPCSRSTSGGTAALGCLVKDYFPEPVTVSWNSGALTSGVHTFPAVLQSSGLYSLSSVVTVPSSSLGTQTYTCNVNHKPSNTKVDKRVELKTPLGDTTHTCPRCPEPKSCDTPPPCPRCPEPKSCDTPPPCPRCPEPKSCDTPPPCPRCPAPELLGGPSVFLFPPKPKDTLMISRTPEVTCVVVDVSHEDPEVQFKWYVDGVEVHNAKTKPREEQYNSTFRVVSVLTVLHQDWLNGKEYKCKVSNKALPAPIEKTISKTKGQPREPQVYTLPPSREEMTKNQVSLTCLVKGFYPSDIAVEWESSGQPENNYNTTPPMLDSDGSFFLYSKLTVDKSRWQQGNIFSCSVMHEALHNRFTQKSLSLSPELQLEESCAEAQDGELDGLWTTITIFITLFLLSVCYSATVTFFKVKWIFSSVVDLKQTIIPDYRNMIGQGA
Chain of Recombinant FcγRI with C-terminus Biotin (human) (P12314 16-292): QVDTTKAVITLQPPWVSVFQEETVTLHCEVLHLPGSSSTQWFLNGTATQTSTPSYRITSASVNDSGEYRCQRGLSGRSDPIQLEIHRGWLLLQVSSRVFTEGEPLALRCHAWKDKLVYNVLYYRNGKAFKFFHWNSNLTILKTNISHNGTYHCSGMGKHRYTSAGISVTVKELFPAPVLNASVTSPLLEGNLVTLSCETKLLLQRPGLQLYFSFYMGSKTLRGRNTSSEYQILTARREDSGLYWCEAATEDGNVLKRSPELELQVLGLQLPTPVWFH

Take Cetuximab (antibody): the equilibrium dissociation constant (Kd) in assay [1] worked out at 17 nM; in [2], 1400 nM; in assay [3] it was 1300 nM; in [4], 970 nM.
For Etanercept (Fc fusion), the Kd is 14 nM in [1], 400 nM in assay [2], 280 nM in [5] and 410 nM in assay [4].
Take Flebogamma (from UniProt P01857): the 50% inhibitory concentration (IC50) in [6] amounted to 37.3 nM; in [7], 15.2 nM; in [8] it was 918 nM; in assay [9], 111 nM; in assay [10] it was 117 nM.
Regarding Gamunex (from UniProt P01857), the IC50 came out at 204 nM in assay [11]; 63.5 nM in assay [12]; 17 nM in assay [13]; 110 nM in assay [14]; 2670 nM in [15].
In the case of Human IgG1 (from UniProt P01857), the half-maximal inhibitory concentration (IC50) in [16] was 122 nM; in assay [17] it was 67 nM; in assay [18] it was 65 nM; in assay [19] it was 0.23 nM.
As to Human IgG3 (from UniProt P01860), the IC50 in [20] stood at 12.3 nM; in assay [21], 85 nM; in assay [22] it was 44.8 nM; in assay [8] it was 819 nM; in [23], 40.8 nM.
On to “Human IgG (human polyclonal IgG) (from UniProt P01857)”, for which the IC50 in assay [24] is 25.8 nM; in assay [25] it was 0.11 nM; in assay [26] it was 99.4 nM; in [27], 4.64 nM; in assay [28], 15.7 nM; in assay [29], 989 nM.
As for Human IgG Fc Fragment, the IC50 in [30] came to 0.56 nM; in assay [31], 2280 nM; in [32], 81 nM; in [33], 342 nM.
In the case of Infliximab (antibody), the Kd worked out at 21 nM in assay [1]; 340 nM in assay [2]; 350 nM in assay [3]; 120 nM in assay [5]; 230 nM in assay [4].
On to NIST mAb standard (antibody), for which the equilibrium dissociation constant (Kd) in assay [1] was 12 nM; in [2] it was 800 nM; in assay [5] it was 420 nM; in assay [4], 640 nM.
NIST mAb standard (from UniProt P01857): the half-inhibitory concentration (IC50) in assay [34] came to 44.5 nM; in [35] it was 466 nM; in assay [36], 261 nM; in assay [37] it was 98.1 nM.
With Octagam (from UniProt P01857), the IC50 in assay [38] came out at 249 nM; in [39], 80.9 nM; in [40] it was 131 nM; in [41], 18.9 nM; in assay [8], 2080 nM.

(Values after paper PMC9287719.)
